Reference: the supplement of paper PMC9170038

Tested on: MS2 coat protein
Assay: apparent KD of MS2 coat protein; designed switch direction (-1 OFF switch, 1 ON switch): 1; higher = weaker reporter binding
Outline: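 SNAP-549-labelled MS2 coat protein was titrated, doubling from 0.7 or 1.5 nM to 3 µM, over designed RNA switches transcribed on Illumina chips by stalled E. coli RNA polymerase. Runs were done without input, with 200 uM small-molecule ligand, or with an oligonucleotide input. Apparent KD is the per-design median over clusters of curve-fitted normalised fluorescence.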

[1] = input ligand: microRNA oligo, concentration not stated
[2] = Eterna round: R95, input ligand: FMN 200 uM
[3] = Eterna round: R95, input ligand: microRNA oligo, concentration not stated
[4] = Eterna round: R95, input ligand: none

Sequence | apparent KD of MS2 coat protein (input ligand: FMN 200 uM) [nM] | apparent KD of MS2 coat protein [1] [nM] | apparent KD of MS2 coat protein (input ligand: none) [nM] | apparent KD of MS2 coat protein [2] [nM] | apparent KD of MS2 coat protein [3] [nM] | apparent KD of MS2 coat protein [4] [nM]
GUUACAUGAGGAUCACCCAUGUAUGUGUGGGAGUAAGUGUCUUAGGAUAUCUAUUAUUUAAGUUAAGAGAAGGAAGAUUGUUGU [JMF's solution 23] (Eterna round: R96, puzzle: Same State NG 3) | 121 | 94.7 | 114 |  |  | 
GUUACAUGAGGAUCACCCAUGUAUGUGUGGGAGUAAGUGUCUUAGGAUAUCUGGUAUUUAAUUUAAGAGAAGGAAGAUUGUUGU [JMF's solution 30] (Eterna round: R96, puzzle: Same State NG 3) | 91.9 | 63.7 | 77.3 |  |  | 
GUUAGGAAUCUAGCAAACAUGAGGAUCACCCAUGUAAGUGGGAAGGAUAUGGUACAGAAACUGUACCAGAAGGUCUUAUUGUUU [Omei SS(NG) 3 AV8] (Eterna round: R96, puzzle: Same State NG 3) | 602 | 17.5 | 280 |  |  | 
GUUAGGAAUCUAGCAGACAUGAGGAUCACCCAUGUUAGUGGGAAGGAUAUGGUACAGAAACUGUACCAGAAGGUCUUAUUGUUU [Omei SS(NG) 3 AV13] (Eterna round: R96, puzzle: Same State NG 3) | 348 | 398 | 690 |  |  | 
GUUAGGAAUCUAGCAUACAUGAGGAUCACCCAUGUAAGUGGGAAGGAUAUGGUACAGAAACUGUACCAGAAGGUCUUAUUAAUU [Omei SS(NG) 3 A] (Eterna round: R96, puzzle: Same State NG 3) | 65.3 | 80.4 | 63.1 |  |  | 
GUUAUACAUGAGGAUCACCCAUGUCAAUGUAGUCGAGGAUAUGGGCAGCUGUGAGGCGUACUAGAAGGCGAAGAGG [JL-ss1-3.10 ViennaUCT mod] (puzzle: Same State 1) |  |  |  | 86.1 | 198 | 170
GUUUGAUGGUGAGGAUAUGUACAAAGAUAGGGUAUAGAAGGCAUGCGCCGGGAAACCGCGGUACAUGAGGAUCACCCAUGUGUC [Eternabot solution 36] (Eterna round: R96, puzzle: Same State NG 1) | 207 | 54.9 | 121 |  |  | 
UAAAGAUCGCGAGGAUAUCGCGAGGAUCACCCGUGAGAAGGCGCAGAGCCGAGGAUCACCCGGCUGAUCCUGAGGAGGAGGUCU (Eterna round: R96, puzzle: Same State NG 1) | 124 | 202 | 318 |  |  | 
UAAAUAAUGUAAGGAUAUACAUGAGGAAUUCUCGUAGAAGGUACAUGACAUGAGGAUCACCCAUGUAUCGCUCAGAAGAGCGUA [Mat - Same State NG 1 - JL mod - D28] (Eterna round: R96, puzzle: Same State NG 1) | 1660 | 39.9 | 298 |  |  | 
UAAGCAUUCCUAGGAUAUGUAGGAUAUGUACAUGAGGAUCACCCAUGUCUACCAGAGACAGAAGGACAGAAGGAGGAAUGCUUC [pwkr ssNG2 2FMN 1F5s.8] (Eterna round: R96, puzzle: Same State NG 2) | 19.1 | 25.8 | 36.5 |  |  | 
UAAGUCAUGUAAGGAUAUGCAGCCGAAACGGCUGCAGAAGGUACUAUAAUUACAUGAGGAUCACCCAUGUUAUAAAAUUUAAAU [Mat - Same State NG 1 - JL mod - D78] (Eterna round: R96, puzzle: Same State NG 1) | 24.1 | 43.2 | 60.7 |  |  | 
UACAAUCUAUCUGAGGAUAUCAUGAAUUUAACAUGAGGAUCACCCAUGUGCAGGAAAACUGCAUAUGAGAAGGCAGAUAGAUUGU [salish99_ss2_r3_061] (puzzle: Same State 2) |  |  |  | 71.3 | 28 | 94.1
UACAAUCUAUCUGAGGAUAUCAUGAUUUUAACAUGAGGAUCACCCAUGUGCAGGAAAACUGCAUAUGAGAAGGCAGAUAGAUUGU [salish99_ss2_r3_070] (puzzle: Same State 2) |  |  |  | 199 | 69.7 | 178
UAGGGACAUGAGGAUCACCCAUGUGCCUCAUAUGGAGAAACUCAGGAUAUGCUGAGGAUCACCCGGCAGAAGGGAGAUCCGAGG (Eterna round: R96, puzzle: Same State NG 3) | 86.6 | 33 | 53.4 |  |  | 
UAGUACAUGCUUUUUGUCUGUCUUAGAUAACAUGAGGAUCACCCAUGUAAGGUGAAAGUUAUAUAGUUUAUGAAUAU [JR_SHM208A_Sub058] (Eterna round: R96, puzzle: Sensor for hsa-mir-208a) | 242 | 309 | 241 |  |  | 
UAGUACAUGCUUUUUGUCUGUCUUAGAUAACAUGAGGAUCACCCAUGUAAGGUGAAAGUUAUAUAGUUUAUGAAUAU [JR_SHM208A_Sub058] (puzzle: Sensor for hsa-mir-208a) |  |  |  | 188 | 346 | 264
UAUCCAUAGAUAGGAUAUUAGAGAACAUGAGGAUCACCCAUGUUUGGCUUGGUUUUAAGCUAAUCUAAGAAGGAUCUUGAUGAA [SameState NG2 #9] (Eterna round: R96, puzzle: Same State NG 2) | 13.3 | 22.9 | 36.5 |  |  | 
UAUCGUUUGAUAGGAUAUCGCUAUACAUGAGGAUCACCCAUGUUUACCACGCUGGUUUUUCAUACCGAGAAGGAUUCUGAUGAA [salish99_SSNG02_r04_004] (Eterna round: R96, puzzle: Same State NG 2) | 29 | 19.6 | 32.5 |  |  | 
UAUGACUUACAAGGAUAUUAAUGACAUGAGGAUCACCCAUGUGGCUGUGUGUGUUAGAUAAGCUUUAAGAAGGUGUGCGUGUCU [JR_SSNG2_Sub096] (Eterna round: R96, puzzle: Same State NG 2) | 361 | 288 | 386 |  |  | 
UAUUAAUCUGUAGGAUAUCUAGGAUAUGGACGAGGAUCACCCGAGCAGCAUCAGCGCACCAGAGGAGAGAAGGACGCUCUGGUG [pwkr ssNG2 2F5 2FMN.25] (Eterna round: R96, puzzle: Same State NG 2) | 332 | 93.7 | 469 |  |  | 
UAUUGUUCCUGAGGAUAUCAGUUGUUUGCAUUAUGAGAAGGCAGUACAUGAGGAUCACCCAUGUUGGGAUUUGAUAGAAUGAUA [JR_SSNG1_Sub007] (Eterna round: R96, puzzle: Same State NG 1) |  | 133 |  |  |  | 
UCAAGAUCGCGAGGAUAUCGCGAGGAUCACCCGUGAGAAGGCGCAGAGCCGAGGAUCACCCGGCUGAUCCUGAGGAGGAGGUAA (Eterna round: R96, puzzle: Same State NG 1) | 139 | 234 | 420 |  |  | 
UCAAUCAUGUAAGGAUAUGCAGCCGAAACGGCUGCAGAAGGUACUAUAAUUACAUGAGGAUCACCCAUGUUAUAAAAUUAAAAU [Mat - Same State NG 1 - JL mod - D69] (Eterna round: R96, puzzle: Same State NG 1) | 35.3 | 101 | 130 |  |  | 
UCACCUAUCGACAUGAGGAUCACCCAUGUGGAUUGAGCUUCCAAGGAUAUCGGCGCACAACCCAUCGAGAAGGUGGAAAGAUAC [Eternabot solution 32] (Eterna round: R96, puzzle: Same State NG 3) | 16.6 | 12.3 | 18 |  |  | 
UCAGUCAUGUAAGGAUAUGCAGCCGAAACGGCUGCAGAAGGUACUAUAAUUACAUGAGGAUCACCCAUGUUAUAAAAUUUAUAU [Mat - Same State NG 1 - JL mod - D64] (Eterna round: R96, puzzle: Same State NG 1) | 24.4 | 44.9 | 58.8 |  |  | 
UCGAGCGUACUUGCAGACAUGAGGAUCACCCAUGUAAAUGGGAAGGAUAUGGUACCGUUUCGGUACCAGAAGGUCCUAGGUGCU [salish99_SSNG3_r04_306] (Eterna round: R96, puzzle: Same State NG 3) | 250 | 327 | 1290 |  |  | 
UCGGGCGUACUUGCAGACAUGAGGAUCACCCAUGUAAAUGGGAAGGAUAUGGUACCGUUUCGGUACCAGAAGGUCCUGGGUGCU [salish99_SSNG3_r04_308] (Eterna round: R96, puzzle: Same State NG 3) | 810 | 281 | 1960 |  |  | 
UCUAGACAUGAGGAUCACCCAUGUCGAUAUGACACAGGAUAUCGGUACUCAUAGAGUACGCGAGAAGGGUGACUUC [Same State 1 - Mod of Vinnie Gere v.3] (puzzle: Same State 1) |  |  |  | 112 | 115 | 166
UCUGCAAGAACAGGAUAUGGGUUCAGAGCGGGAGUGCGCUUUGAUACAUGAGGAUCACCCAUGUCCCAGAAGGGUUCAAGCGGC [Maedraedbi] (Eterna round: R96, puzzle: Same State NG 2) | 32.9 | 35.2 | 188 |  |  | 
UCUUGGUUUUUGCUCGUUUUUUGUGUUGAACAUGAGGAUCACCCAUGUAUUGUACAAUCCAAUUUAAUAAUGGUCCA [Mod of one of JR's submissions 3] (puzzle: Sensor for hsa-mir-208a) |  |  |  | 44.2 | 42.2 | 47.8
